The text below walks through data of paper PMC10786891, “Massively parallel profiling of RNA-targeting CRISPR-Cas13d”.

T1: EsCas13d, nuclease-dead (Eubacterium siraeum, UniProt B0MS50, R295A;H300A;R849A;H854A)
T1 sequence: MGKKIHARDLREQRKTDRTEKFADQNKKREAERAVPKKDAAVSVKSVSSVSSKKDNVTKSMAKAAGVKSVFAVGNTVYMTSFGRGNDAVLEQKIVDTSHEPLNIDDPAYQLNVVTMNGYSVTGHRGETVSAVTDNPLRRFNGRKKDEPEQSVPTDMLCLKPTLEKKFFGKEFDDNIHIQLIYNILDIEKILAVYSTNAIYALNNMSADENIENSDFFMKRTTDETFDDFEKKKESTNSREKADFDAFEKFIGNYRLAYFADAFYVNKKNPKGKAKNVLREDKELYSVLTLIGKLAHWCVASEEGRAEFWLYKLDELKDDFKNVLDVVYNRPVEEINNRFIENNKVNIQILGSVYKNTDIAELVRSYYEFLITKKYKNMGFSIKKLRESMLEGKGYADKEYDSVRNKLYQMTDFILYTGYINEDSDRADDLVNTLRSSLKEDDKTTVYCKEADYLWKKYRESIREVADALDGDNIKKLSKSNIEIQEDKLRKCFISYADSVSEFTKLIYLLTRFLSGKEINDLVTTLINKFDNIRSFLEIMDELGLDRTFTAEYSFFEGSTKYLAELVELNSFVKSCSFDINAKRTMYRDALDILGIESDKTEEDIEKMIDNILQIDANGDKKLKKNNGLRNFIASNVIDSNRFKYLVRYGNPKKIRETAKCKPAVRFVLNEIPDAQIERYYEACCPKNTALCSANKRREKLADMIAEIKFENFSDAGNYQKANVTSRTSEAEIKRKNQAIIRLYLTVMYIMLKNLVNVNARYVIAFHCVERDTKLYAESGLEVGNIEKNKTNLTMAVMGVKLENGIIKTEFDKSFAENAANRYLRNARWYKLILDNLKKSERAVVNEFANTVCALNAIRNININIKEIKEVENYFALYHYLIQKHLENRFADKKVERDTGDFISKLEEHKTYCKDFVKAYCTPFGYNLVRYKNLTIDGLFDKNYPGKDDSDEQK

B1: target 1 G13A,A14C (mixed)
RNA 1: CACCCGUGCAAAAAUGCAGGGGUCUAAAACUGAGCGGAUAACCUCUCUAUGG
RNA 2: GGGAAUGGAUCCACAUCUACGAAUUCGUACCAUAGAGCAGUUAUCCGCUCACCGAGAUCGGAAGAGCACACGU
B2: target 1 U11C,G15A (mixed)
RNA 1: CACCCGUGCAAAAAUGCAGGGGUCUAAAACUGAGCGGAUAACCUCUCUAUGG
RNA 2: GGGAAUGGAUCCACAUCUACGAAUUCGUACCAUAGAAAGGCUAUCCGCUCACCGAGAUCGGAAGAGCACACGU
B3: target 1 insG 3' of 8,insG 3' of 2 (mixed)
RNA 1: CACCCGUGCAAAAAUGCAGGGGUCUAAAACUGAGCGGAUAACCUCUCUAUGG
RNA 2: GGGAAUGGAUCCACAUCUACGAAUUCGUACCAUAGAGAGGUUAUGCCGCUCGACCGAGAUCGGAAGAGCACACGU
B4: target 1 insG 3' of 14,insC 3' of 5 (mixed)
RNA 1: CACCCGUGCAAAAAUGCAGGGGUCUAAAACUGAGCGGAUAACCUCUCUAUGG
RNA 2: GGGAAUGGAUCCACAUCUACGAAUUCGUACCAUAGAGAGGGUUAUCCGCCUCACCGAGAUCGGAAGAGCACACGU
B5: target 1 insC 3' of 18,insG 3' of 7 (mixed)
RNA 1: CACCCGUGCAAAAAUGCAGGGGUCUAAAACUGAGCGGAUAACCUCUCUAUGG
RNA 2: GGGAAUGGAUCCACAUCUACGAAUUCGUACCAUACGAGAGGUUAUCGCGCUCACCGAGAUCGGAAGAGCACACGU
B6: target 1 insU 3' of 13,insU 3' of 7 (mixed)
RNA 1: CACCCGUGCAAAAAUGCAGGGGUCUAAAACUGAGCGGAUAACCUCUCUAUGG
RNA 2: GGGAAUGGAUCCACAUCUACGAAUUCGUACCAUAGAGAGUGUUAUCUCGCUCACCGAGAUCGGAAGAGCACACGU
B7: target 1 insG 3' of 19,insA 3' of 7 (mixed)
RNA 1: CACCCGUGCAAAAAUGCAGGGGUCUAAAACUGAGCGGAUAACCUCUCUAUGG
RNA 2: GGGAAUGGAUCCACAUCUACGAAUUCGUACCAUGAGAGAGGUUAUCACGCUCACCGAGAUCGGAAGAGCACACGU
B8: target 1 insA 3' of 3,insG 3' of 1 (mixed)
RNA 1: CACCCGUGCAAAAAUGCAGGGGUCUAAAACUGAGCGGAUAACCUCUCUAUGG
RNA 2: GGGAAUGGAUCCACAUCUACGAAUUCGUACCAUAGAGAGGUUAUCCGCUACAGCCGAGAUCGGAAGAGCACACGU
B9: target 1 C6A,U19G (mixed)
RNA 1: CACCCGUGCAAAAAUGCAGGGGUCUAAAACUGAGCGGAUAACCUCUCUAUGG
RNA 2: GGGAAUGGAUCCACAUCUACGAAUUCGUACCAGAGAGAGGUUAUCAGCUCACCGAGAUCGGAAGAGCACACGU
B10: target 1 insA 3' of 19,insA 3' of 4 (mixed)
RNA 1: CACCCGUGCAAAAAUGCAGGGGUCUAAAACUGAGCGGAUAACCUCUCUAUGG
RNA 2: GGGAAUGGAUCCACAUCUACGAAUUCGUACCAUAAGAGAGGUUAUCCGCAUCACCGAGAUCGGAAGAGCACACGU
B11: target 1 complement block 14-16 (mixed)
RNA 1: CACCCGUGCAAAAAUGCAGGGGUCUAAAACUGAGCGGAUAACCUCUCUAUGG
RNA 2: GGGAAUGGAUCCACAUCUACGAAUUCGUACCAUAGUCUGGUUAUCCGCUCACCGAGAUCGGAAGAGCACACGU
B12: target 1 insG 3' of 6,insG 3' of 4 (mixed)
RNA 1: CACCCGUGCAAAAAUGCAGGGGUCUAAAACUGAGCGGAUAACCUCUCUAUGG
RNA 2: GGGAAUGGAUCCACAUCUACGAAUUCGUACCAUAGAGAGGUUAUCCGGCGUCACCGAGAUCGGAAGAGCACACGU
B13: target 1 C2A,C6A (mixed)
RNA 1: CACCCGUGCAAAAAUGCAGGGGUCUAAAACUGAGCGGAUAACCUCUCUAUGG
RNA 2: GGGAAUGGAUCCACAUCUACGAAUUCGUACCAUAGAGAGGUUAUCAGCUAACCGAGAUCGGAAGAGCACACGU
B14: target 1 C7G,U8G (mixed)
RNA 1: CACCCGUGCAAAAAUGCAGGGGUCUAAAACUGAGCGGAUAACCUCUCUAUGG
RNA 2: GGGAAUGGAUCCACAUCUACGAAUUCGUACCAUAGAGAGGUUAGGCGCUCACCGAGAUCGGAAGAGCACACGU
B15: target 1 C2U,C21A (mixed)
RNA 1: CACCCGUGCAAAAAUGCAGGGGUCUAAAACUGAGCGGAUAACCUCUCUAUGG
RNA 2: GGGAAUGGAUCCACAUCUACGAAUUCGUACAAUAGAGAGGUUAUCCGCUUACCGAGAUCGGAAGAGCACACGU
B16: target 1 insU 3' of 13 (mixed)
RNA 1: CACCCGUGCAAAAAUGCAGGGGUCUAAAACUGAGCGGAUAACCUCUCUAUGG
RNA 2: GGGAAUGGAUCCACAUCUACGAAUUCGUACCAUAGAGAGUGUUAUCCGCUCACCGAGAUCGGAAGAGCACACGU
B17: target 1 C4G,A14G (mixed)
RNA 1: CACCCGUGCAAAAAUGCAGGGGUCUAAAACUGAGCGGAUAACCUCUCUAUGG
RNA 2: GGGAAUGGAUCCACAUCUACGAAUUCGUACCAUAGAGGGGUUAUCCGGUCACCGAGAUCGGAAGAGCACACGU
B18: target 1 insA 3' of 22,insA 3' of 8 (mixed)
RNA 1: CACCCGUGCAAAAAUGCAGGGGUCUAAAACUGAGCGGAUAACCUCUCUAUGG
RNA 2: GGGAAUGGAUCCACAUCUACGAAUUCGUACACAUAGAGAGGUUAUACCGCUCACCGAGAUCGGAAGAGCACACGU
B19: target 1 U3A,U11G (mixed)
RNA 1: CACCCGUGCAAAAAUGCAGGGGUCUAAAACUGAGCGGAUAACCUCUCUAUGG
RNA 2: GGGAAUGGAUCCACAUCUACGAAUUCGUACCAUAGAGAGGGUAUCCGCACACCGAGAUCGGAAGAGCACACGU
B20: target 1 insG 3' of 10,insG 3' of 8 (mixed)
RNA 1: CACCCGUGCAAAAAUGCAGGGGUCUAAAACUGAGCGGAUAACCUCUCUAUGG
RNA 2: GGGAAUGGAUCCACAUCUACGAAUUCGUACCAUAGAGAGGUUGAUGCCGCUCACCGAGAUCGGAAGAGCACACGU
B21: target 1 insG 3' of 9,insC 3' of 1 (mixed)
RNA 1: CACCCGUGCAAAAAUGCAGGGGUCUAAAACUGAGCGGAUAACCUCUCUAUGG
RNA 2: GGGAAUGGAUCCACAUCUACGAAUUCGUACCAUAGAGAGGUUAGUCCGCUCACCCGAGAUCGGAAGAGCACACGU
B22: target 1 insC 3' of 14,insA 3' of 7 (mixed)
RNA 1: CACCCGUGCAAAAAUGCAGGGGUCUAAAACUGAGCGGAUAACCUCUCUAUGG
RNA 2: GGGAAUGGAUCCACAUCUACGAAUUCGUACCAUAGAGACGGUUAUCACGCUCACCGAGAUCGGAAGAGCACACGU
B23: target 1 insA 3' of 7 (mixed)
RNA 1: CACCCGUGCAAAAAUGCAGGGGUCUAAAACUGAGCGGAUAACCUCUCUAUGG
RNA 2: GGGAAUGGAUCCACAUCUACGAAUUCGUACCAUAGAGAGGUUAUCACGCUCACCGAGAUCGGAAGAGCACACGU

The data set has as its target T1, EsCas13d, nuclease-dead. In words: crRNA (strand 1, pre-loaded); Mg2+; 40 mM Tris-HCl pH 7.5, 150 mM NaCl, 6 mM MgCl2, 1 mM DTT, 0.1% Tween-20, 0.2 mg/ml BSA; 25 C; 10 min per concentration, then washed. The following applies: tags: His6-TwinStrep-SUMO cleaved; N-terminal SNAP kept (SNAP-Surface 488); label: 3' end held by stalled T7 RNA polymerase.
Molecule B1 registered a Kd of 12 ± 0.7 nM.
For the molecule B2, the Kd is 27 ± 3.3 nM.
Turning to B3, the Kd is 13.1 ± 0.6 nM. This Kd is about 2.1-fold lower than that of the molecule before.
In turn, B4 came in with a Kd of 12.1 ± 1 nM.
B5 displayed a dissociation constant (Kd) of 36.8 ± 2.2 nM.
B6 registered a Kd of 13.7 ± 0.8 nM.
Regarding B7, binding was characterised by a dissociation constant (Kd) of 36.7 ± 2.9 nM.
On to B8, for which binding was put at a Kd of 5.69 ± 0.25 nM.
The molecule B9 came in with a dissociation constant (Kd) of 46 ± 4 nM. Compared with the last molecule, the Kd is about 8.1-fold higher.
Molecule B10 displayed a Kd of 16 ± 1.3 nM. Compared with the last molecule, the Kd is about 2.9-fold lower.
The value for B11 was 61 ± 9 nM; that for B12 was 8 ± 0.4 nM; that for B13 was 4.84 ± 0.28 nM.
B14 displayed a Kd of 11.5 ± 0.9 nM.
As to B15, the Kd worked out at 28.1 ± 3.1 nM.
Take B16: the Kd came out at 11.4 ± 1.5 nM.
B17 registered a Kd of 13.2 ± 1.2 nM.
As to B18, binding was characterised by a dissociation constant (Kd) of 20.9 ± 1.3 nM. This Kd is about 1.6-fold higher than that of the molecule before.
The value for B19 was 12.2 ± 0.7 nM; that for B20 was 21.8 ± 0.7 nM; that for B21 was 17.4 ± 1.2 nM.
Turning to B22, the Kd worked out at 47 ± 10 nM.
On to B23, for which binding was characterised by a dissociation constant (Kd) of 5.49 ± 0.21 nM.

As usually defined, the Kd is the constant that tells how readily two partners part at equilibrium. A lower Kd goes with tighter binding.
